Test results: patent publication US20030190641A1, “Live cell method for observing cellular processes” (CEDARS-SINAI MEDICAL CENTER, priority 2002, published 2003)

Columns and labels:
H1299 cells [1] = test: Single, live cell imaging: duration of mitosis phases of cells expressing PTTG-EGFP; assay type: cell-based, human; details: 18 hours after transfection
Description: (§1) Human H1299 cells were grown in Dulbeccos's Modified Eagle Medium (DMEM) with 10% Fetal Bovine Serum (FBS) and transfected with Lipofectamine 2000 (obtained from Invitrogen Corporation; Carlsbad, Calif.; hereinafter “Invitrogen”). PTTG-EGFP and p55CDC-EGFP were constructed by cloning PTTG or p55CDC (obtained from Amgen, Inc.; Thousand Oaks, Calif.) into pEGFP-N3 (obtained from BD Biosciences Clontech; Palo Alto, Calif.; hereinafter “Clontech”). Non-degradable mutant PTTG-EGFP was obtained from Dr. Chris McCabe (University of Birmingham, England, UK). EGFP was at the C-terminus of PTTG or p55CDC. Cells were studied (microscopy or by Western blot) 18 to 24 hours after transfection.
(§2) Observation of individual live cells over 48 hours or longer was performed by incubating cells in an FCS2 Closed Perfusion System (obtained from Bioptechs; Butler, Pa.). Cells were perfused with CO2-independent L15 medium (obtained from Invitrogen) supplemented with 10% FBS and penicillin/streptomycin and saturated with ambient air. Perfusion chamber temperature was set to 37° C., and cells were grown in the perfusion system for up to a week until confluency.
(§3) The perfusion chamber was placed on an inverted fluorescence microscope (obtained from Nikon Corporation; Melville, N.Y.) and observed with a 40× extra-long working distance objective lens. Cells were observed from every few seconds to every several hours depending on the speed of cell changes. Durations of mitosis phases were determined by counting the minutes between two sequential mitotic milestones. Phase-contrast and EGFP fluorescent images were taken simultaneously at frequencies ranging from every minute (e.g., during metaphase to anaphase transition) to every few hours (e.g., after telophase), with a CCD digital camera.
(§4) Relative fluorescence intensity was objectively determined with the application of two neutral density filters (NDFs). Each NDF reduces incident light by 50%. High fluorescence was defined when a cell was clearly visualized after application of two NDFs. Medium fluorescence was defined as a cell clearly visualized after application of one but not two NDFs. Low fluorescence was defined as a cell only visualized when neither NDF was applied.
As depicted in Table 1, prophase (Pro), metaphase (Meta), anaphase (Ana), and telophase (Telo) durations were recorded (in minutes) in untransfected control cells (Control), cells expressing EGFP only (EGFP), and in cells expressing PTTG-EGFP (PTTG-EGFP) 18 hours after transfection. […] For some cells expressing PTTG-EGFP, no distinct anaphase or telophase was seen because of abnormal chromosome segregation and cytokinesis.

H1299 cells [2] = test: Single, live cell imaging: destiny of mitosis (PTTG degradation, chromosome segregation, cytokinesis, aneuploidy); assay type: cell-based, human
Description: as §1, §2, §3, §4
As failure of PTTG degradation is associated with chromosome non-segregation, an EGFP-tagged non-degradable mutant PTTG (DM-PTTG-EGFP) was expressed in H1299 cells and chromosome segregation and cytokinesis of individual live cells observed (FIG. 6; FIG. 5A). Similar to the wild-type PTTG, DM-PTTG localizes to mitotic spindles (FIGS. 5B-5G) and chromosomes (data not shown). […] Most (51/55) cells underwent asymmetrical cytokinesis, while some cells decondensed chromosomes; macronuclei ensued in both cases. During asymmetrical cytokinesis, chromosomes and mitotic spindles were closely attached and moved to one cell pole (FIGS. 5B-5G). The cytokinesis furrow occurred roughly at the position of the distal centrosome (FIGS. 5C and 5D). Both centrosomes were retained in the daughter cell containing chromosomes (FIGS. 5E and 5F).

[3] = High expression level (fluorescence)
[4] = Low expression level (fluorescence)
[5] = Medium expression level (fluorescence)

B1: PTTG-EGFP: EGFP-tagged PTTG (pituitary tumor transforming gene product), EGFP at the C-terminus, expressed in H1299 cells by transfection (protein, UniProt O95997 2-202, looked up)
Securin: ATLIYVDKENGEPGTRVVAKDGLKLGSGPSIKALDGRSQVSTPRFGKTFDAPPALPKATRKALGTVNRATEKSVKTKGPLKQKQPSFSAKKMTEKTVKAKSSVPASDDAYPEIEKFFPFNPLDFESFDLPEEHQIAHLPLSGVPLMILDEERELEKLFQLGPPSPVKMPSPPWESNLLQSPSSILSTLDVELPPVCCDIDI
modifications: C-terminal EGFP tag
notes: EGFP-tagged PTTG (pituitary tumor transforming gene product), EGFP at the C-terminus, expressed in H1299 cells by transfection
Duration of metaphase (Meta) (H1299 cells [1]; [3]): 112 ± 31 min | Duration of prophase (Pro) (H1299 cells [1]; [3]): 59 ± 7 min | Duration of anaphase (Ana) (H1299 cells [1]; [4]): 4 ± 0 min | Duration of metaphase (Meta) (H1299 cells [1]; [4]): 26 ± 4 min | Duration of prophase (Pro) (H1299 cells [1]; [4]): 25 ± 3 min | Duration of telophase (Telo) (H1299 cells [1]; [4]): 5 ± 0 min | Duration of anaphase (Ana) (H1299 cells [1]; [5]): 4 ± 0 min | Duration of metaphase (Meta) (H1299 cells [1]; [5]): 49 ± 16 min | Duration of prophase (Pro) (H1299 cells [1]; [5]): 35 ± 12 min | Duration of telophase (Telo) (H1299 cells [1]; [5]): 5 ± 0 min | Cells with anaphase bridge (H1299 cells [2]; 65 cells expressing PTTG-EGFP observed): 2/65 | Time of degradation prior to the onset of anaphase (H1299 cells [2]; cells that underwent apparently normal mitosis): about 1 minute | Aneuploidy of daughter cells (H1299 cells [2]; parent cells expressing high levels): All daughter cells | Aneuploidy rate of daughter cells (H1299 cells [2]; parent cells expressing low levels): 18% | Aneuploidy rate of daughter cells (H1299 cells [2]; parent cells expressing medium levels): 63%
